In patent publication US20240309095A1 (Incyte, published 2024):
Positions count from the first letter of the chain named. One block for each binder: values may come before it.

What was measured:
[1] = target: T1, human B7-H4 (purified monomeric recombinant human protein, ACRO biosystems) (human, UniProt Q7Z7D3 29-258, limits assumed, chemically biotinylated (EZ-Link NHS-LC-Biotin) in the yeast display and competition experiments; non-biotinylated in SPR); assay: SPR (Carterra LSA); scFv-Fc captured on anti-human IgG Fc, antigen injected
T1 construct: Bought recombinant monomeric protein; also called B7x; B7S1
T1 sequence: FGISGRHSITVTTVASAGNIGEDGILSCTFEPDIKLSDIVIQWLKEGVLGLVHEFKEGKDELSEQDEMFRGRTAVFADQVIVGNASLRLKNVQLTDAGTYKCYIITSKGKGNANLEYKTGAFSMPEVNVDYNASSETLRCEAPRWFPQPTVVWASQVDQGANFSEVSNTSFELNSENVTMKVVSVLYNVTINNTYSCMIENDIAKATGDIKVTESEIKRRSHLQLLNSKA
Protocol: (§1) Finally, the affinity of the 24 clones was determined using high-throughput surface plasmon resonance (SPR). The supernatants were arrayed by non-covalent capture in a medium-density SPR chip previously coupled with an anti-human polyclonal antibody and (at least 4 replicates per clone). Non-biotinylated antigen was used for all affinity measurements and sensorgrams were fitted using a pseudo-first-order kinetic model (Lundström 1994). […] In fact, it is notable that the off rates for some of the tested antibodies are probably better than 10⁻⁵ (Table 7), as indicated by the bunching of matured antibodies at that value (Table 7)—such slow off rates are challenging to accurately measure using SPR. No affinity difference was observed between clones coming from one combo library versus the other.
(§2) The scFv from the final population (round 3, combo libraries) was bulk cloned into a yeast expression vector containing a human IgG1 Fc region to be expressed in the scFv-Fc format. For this, the scFv region was amplified by PCR, digested with BssHII and NheI restriction enzyme (New England Biolabs), and cloned into the pDNL9 vector, 92 clones were analyzed by Sanger sequencing and 24 of these plus the parental were expressed using S. cerevisiae strain YVH10 (ATCC MYA-4940). scFv-Fc fusions were expressed for 72 h at 20° C. in the presence of galactose. The Carterra LSA surface resonance system was used for the affinity measurements. Briefly, anti-Human IgG Fc (Southern Biotech, #2048-01) was covalently coupled to an HC30M chip following the manufacturer's protocols. Crude yeast supernatants containing the scFv-Fc fusions were arrayed on the chip.

[2] = target: T1, human B7-H4 (purified monomeric …); assay: SPR (Carterra LSA); scFv-Fc captured on anti-human IgG Fc, antigen injected; asterisk: reached minimum allowed dissociation rate
Protocol: as §1, §2

[3] = target: T1, human B7-H4 (purified monomeric …); assay: SPR (Carterra LSA); scFv-Fc captured on anti-human IgG Fc, antigen injected; asterisk: reached minimum allowed dissociation rate; asterisk: kd at the minimum value allowed (10^-5 s^-1)
Protocol: as §1
as §2, with “The Carterra LSA surface resonance system was used for the affinity measurements. Briefly, anti-Human IgG Fc (Southern Biotech, #2048-01) was covalently coupled to an HC30M chip following the manufacturer's protocols. Crude yeast supernatants containing the scFv-Fc fusions were arrayed on the chip.” left out

B1: B07 scFv-Fc (scFv, V domains shown)
VH: EVQLVESGGGVVQPGRSLRLSCAASGFTFGDRAMNWVRQAPGKGLEWVSAISGSGATTYYADSVKGRFTISRDNSKNTLYLQMNSLRAEDTAVYYCARKRWYGMDVWGQGTTVTVSS
VL: SYELTQPPSVSVAPGKTARITCGGNNIGSKSVHWYQQKPGQAPVLVVYDDSDRPSGIPERFSGSNSGNTATLTISRVEAGDEADYYCQVWDRGMIFGTGTKLTVL
notes: Tested as scFv-Fc fusion (human IgG1 Fc, vector pDNL9) in crude yeast supernatant; Combo 2 library
KD fold-improvement [1]: 138 fold over parental
Kd [1]: 0.054 nM
koff [1]: 1.8e-05 s⁻¹
kon [1]: 330000 M⁻¹ s⁻¹

B2: Parental (H6.1) scFv-Fc (scFv, V domains shown)
VH: B1 VH with G30S, D31S, R32Y, A33S, A56G, T57S
VL: SYELTQPPSVSVAPGKTARITCGGNNIGSKSVHWYQQKPGQAPVLVVYDDSDRPSGIPERFSGSNSGNTATLTISRVEAGDEADYYCQVWDSRTYVFGTGTKLTVL
notes: Expressed with the 24 clones as scFv-Fc fusion (human IgG1 Fc) in yeast for SPR; also called parental antibody; parental molecule
KD fold-improvement [1]: 1 fold over parental
Kd [1]: 7.43 nM
koff [1]: 0.0033 s⁻¹
kon [1]: 450000 M⁻¹ s⁻¹

B4: B04 scFv-Fc (scFv, V domains shown)
VH: B1 VH with T28S, G30S, D31S, I51V, A56S, T57G
VL: B1 VL with S29L
notes: Tested as scFv-Fc fusion (human IgG1 Fc, vector pDNL9) in crude yeast supernatant; Combo 1 library
KD fold-improvement [1]: 43 fold over parental
Kd [1]: 0.172 nM
koff [1]: 2.7e-05 s⁻¹
kon [1]: 160000 M⁻¹ s⁻¹

B8: A12 scFv-Fc (scFv, V domains shown)
VH: B1 VH with G30D, D31N, G53S, A56S, T58M
VL: B2 VL
notes: as for B1
KD fold-improvement [1]: 53 fold over parental
Kd [1]: 0.139 nM
koff [1]: 3.2e-05 s⁻¹
kon [1]: 230000 M⁻¹ s⁻¹

B11: A05 scFv-Fc (scFv, V domains shown)
VH: B1 VH with F29Y, G30S, D31S, A56S, T57N, T58A
VL: B1 VL
notes: as for B4
KD fold-improvement [1]: 63 fold over parental
Kd [1]: 0.117 nM
koff [1]: 2.2e-05 s⁻¹
kon [1]: 190000 M⁻¹ s⁻¹

B14: A01 scFv-Fc (scFv, V domains shown)
VH: B1 VH with G30S, D31N, R32K
VL: B1 VL
notes: as for B4
KD fold-improvement [1]: 33 fold over parental
Kd [1]: 0.224 nM
koff [1]: 3.7e-05 s⁻¹
kon [1]: 170000 M⁻¹ s⁻¹

B16: A10 scFv-Fc (scFv, V domains shown)
VH: B1 VH with G30S, D31S, A33S, S54T, A56Y
VL: B1 VL
notes: as for B1
KD fold-improvement [1]: 72 fold over parental
Kd [1]: 0.103 nM
koff [1]: 1.4e-05 s⁻¹
kon [1]: 140000 M⁻¹ s⁻¹

B20: B08 scFv-Fc (scFv, V domains shown)
VH: B1 VH with G30S, G53A, T57S, T58R
VL: B1 VL
notes: as for B1
KD fold-improvement [1]: 64 fold over parental
Kd [1]: 0.117 nM
koff [1]: 1.8e-05 s⁻¹
kon [1]: 150000 M⁻¹ s⁻¹

B21: A07 scFv-Fc (scFv, V domains shown)
VH: B1 VH with G30S, D31S, A33S, A56S, T58V
VL: B2 VL
notes: as for B1
KD fold-improvement [1]: 27 fold over parental
Kd [1]: 0.277 nM
koff [1]: 4.7e-05 s⁻¹
kon [1]: 170000 M⁻¹ s⁻¹

B22: B09 scFv-Fc (scFv, V domains shown)
VH: B1 VH with F29Y, G30S, D31S, G53S, A56T
VL: B1 VL
notes: as for B1
KD fold-improvement [1]: 63 fold over parental
Kd [1]: 0.118 nM
koff [1]: 2.5e-05 s⁻¹
kon [1]: 210000 M⁻¹ s⁻¹

B23: B06 scFv-Fc (scFv, V domains shown)
VH: B1 VH with G30S, D31N, R32K
VL: B1 VL with S29V, S31A
notes: as for B4
KD fold-improvement [1]: 76 fold over parental
Kd [1]: 0.097 nM
koff [1]: 1.7e-05 s⁻¹
kon [1]: 170000 M⁻¹ s⁻¹

B24: B10 scFv-Fc (scFv, V domains shown)
VH: B1 VH with G30S, D31T, S54T, A56D
VL: B2 VL with D91G, S92R, R93Y, T94Q, Y95M, V96I
notes: as for B1
KD fold-improvement [1]: 64 fold over parental
Kd [1]: 0.116 nM
koff [1]: 2.9e-05 s⁻¹
kon [1]: 260000 M⁻¹ s⁻¹

More lines, now with the values ahead:

KD fold-improvement [1]: 127 fold over parental
Kd [1]: 0.059 nM
koff [1]: 1.1e-05 s⁻¹
kon [1]: 180000 M⁻¹ s⁻¹
B3: B02 scFv-Fc (scFv, V domains shown)
VH: B1 VH with G30S, D31S, A33S, A56S, T58V
VL: B2 VL with S29V, P54S, S55P
notes: as for B4

KD fold-improvement [1]: 106 fold over parental
Kd [1]: 0.07 nM
koff [1]: 2.1e-05 s⁻¹
kon [1]: 300000 M⁻¹ s⁻¹
B5: B03 scFv-Fc (scFv, V domains shown)
VH: B1 VH with A56S, T57G
VL: B1 VL with S29M
notes: as for B4

KD fold-improvement [1]: 100 fold over parental
Kd [1]: 0.074 nM
koff [1]: 1.1e-05 s⁻¹
kon [1]: 160000 M⁻¹ s⁻¹
B6: A09 scFv-Fc (scFv, V domains shown)
VH: B1 VH with G30S, D31S, A33S, A56L, T58S
VL: B1 VL
notes: as for B1

KD fold-improvement [1]: 188 fold over parental
Kd [1]: 0.039 nM
koff [1]: 1.1e-05 s⁻¹
kon [1]: 280000 M⁻¹ s⁻¹
B7: A02 scFv-Fc (scFv, V domains shown)
VH: B1 VH with G30T, D31S, G53Y, S54E, A56R, T58Q
VL: B1 VL
notes: as for B4

KD fold-improvement [1]: 109 fold over parental
Kd [1]: 0.068 nM
koff [1]: 1.2e-05 s⁻¹
kon [1]: 180000 M⁻¹ s⁻¹
B9: B11 scFv-Fc (scFv, V domains shown)
VH: B1 VH with G30T, D31S, T58A
VL: B1 VL
notes: as for B1

KD fold-improvement [1]: 123 fold over parental
Kd [1]: 0.06 nM
koff [1]: 1.1e-05 s⁻¹
kon [1]: 190000 M⁻¹ s⁻¹
B10: A11 scFv-Fc (scFv, V domains shown)
VH: B1 VH with G30S, D31S, A33S, A56S, T58V
VL: B1 VL
notes: as for B1

KD fold-improvement [1]: 119 fold over parental
Kd [1]: ≤ 0.063 nM
kon [1]: 160000 M⁻¹ s⁻¹
koff [2]: ≤ 1e-05 s⁻¹
B12: G05 scFv-Fc (scFv, V domains shown)
VH: B1 VH with G30S, D31S, A33S, A56S, T58V
VL: B2 VL with N26K, I27L, S29D, S31W, D49E, S51V
notes: Tested as scFv-Fc fusion (human IgG1 Fc, vector pDNL9) in crude yeast supernatant; Combo 1 library; also called G5

KD fold-improvement [1]: 172 fold over parental
Kd [1]: 0.043 nM
koff [1]: 1.3e-05 s⁻¹
kon [1]: 310000 M⁻¹ s⁻¹
B13: A08 scFv-Fc (scFv, V domains shown)
VH: B1 VH with G53S, A56T, T58S
VL: B1 VL
notes: as for B1

KD fold-improvement [1]: 89 fold over parental
Kd [1]: 0.084 nM
koff [1]: 2.8e-05 s⁻¹
kon [1]: 340000 M⁻¹ s⁻¹
B15: B12 scFv-Fc (scFv, V domains shown)
VH: B1 VH with G30S, S54T, T57S
VL: B1 VL
notes: as for B1

KD fold-improvement [1]: 108 fold over parental
Kd [1]: 0.069 nM
koff [1]: 2.1e-05 s⁻¹
kon [1]: 310000 M⁻¹ s⁻¹
B17: A04 scFv-Fc (scFv, V domains shown)
VH: B1 VH with G30S, D31S, A33S, A56D
VL: B1 VL
notes: as for B4

KD fold-improvement [1]: 109 fold over parental
Kd [1]: ≤ 0.068 nM
kon [1]: 150000 M⁻¹ s⁻¹
koff [2]: ≤ 1e-05 s⁻¹
B18: B05 scFv-Fc (scFv, V domains shown)
VH: B1 VH with F27L, G30S, D31S, S54T
VL: B1 VL with S31M
notes: as for B4

KD fold-improvement [1]: 221 fold over parental
Kd [1]: ≤ 0.034 nM
kon [1]: 320000 M⁻¹ s⁻¹
koff [3]: ≤ 1e-05 s⁻¹
B19: A06 scFv-Fc (scFv, V domains shown)
VH: B1 VH with S54T
VL: B1 VL with G28V, S29T
notes: as for B4

KD fold-improvement [1]: 231 fold over parental
Kd [1]: ≤ 0.032 nM
kon [1]: 310000 M⁻¹ s⁻¹
koff [2]: ≤ 1e-05 s⁻¹
B25: B01 scFv-Fc (scFv, V domains shown)
VH: B1 VH with G30S, G53Y, S54E, A56R, T58Q
VL: B2 VL with S29V
notes: as for B4
